# Data taken from PMC4893161, “The Dynamic Localization of Cytoplasmic Dynein in Neurons Is Driven by Kinesin-1” (Neuron, 2016).
# B1: DIC1a: neuron-specific dynein intermediate chain isoform, expressed in COS cells (protein)
# chain: MSDKSDLKAELERKKQRLAQIREEKKRKEEERKKKEADMQQKKEPVPDDSDLDRKRRETEALLQSIGISPEPPLVQPLHFLTWDTCYFHYLVPTPMSPSSKSVSTPSEAGSQDDLGPLTRTLQWDTDPSVLQLQSDSELGRRLNKLGVSKVTQVDFLPREVVSYSKETQTPLATHQSEEDEEDEEMVEPKVGHDSELENQDKKQETKEAPPRELTEEEKQQILHSEEFLIFFDRTIRVIERALAEDSDIFFDYSGRELEEKDGDVQAGANLSFNRQFYDEHWSKHRVVTCMDWSLQYPELMVASYSNNEDAPHEPDGVALVWNMKFKKTTPEYVFHCQSSVMSVCFARFHPNLVVGGTYSGQIVLWDNRSHRRTPVQRTPLSAAAHTHPVYCVNVVGTQNAHNLITVSTDGKMCSWSLDMLSTPQESMELVYNKSKPVAVTGMAFPTGDVNNFVVGSEEGTVYTACRHGSKAGIGEVFEGHQGPVTGINCHMAVGPIDFSHLFVTSSFDWTVKLWTTKHNKPLYSFEDNADYVYDVMWSPVHPALFACVDGMGRLDLWNLNSDTEVPTASVAIEGAYALNRVRWAQGGKEVAVGDSEGRIWIYDVGELAVPHNDEWTRFARTLVEIRANRADSEEEGAVELAA
# modifications: left off: mCherry, end not stated, kept
# notes: neuron-specific dynein intermediate chain isoform, expressed in COS cells
# Columns and labels:
# Type in all cases: binding
# KIF5A, KIF5B, KIF5C = assay: Co-immunoprecipitation of DIC1a with myc-tagged KIF5 isoforms in COS cells; settings: IP anti-myc, Figure 4A
# KIF5C stalk (561–774) = assay: Co-immunoprecipitation of DIC1a with KIF5C head, stalk and tail constructs in COS cells; settings: IP anti-GFP, Figures 4B and 4C
# KLC2 = assay: Co-immunoprecipitation of KLC2 versus KLC1 with mCherry-DIC1a in COS cells; settings: COS cell lysates, IP anti-mCherry, band intensity relative to KLC1, n = 4 experiments
molecule,measurement,setting,value
B1,co-precipitation with all three KIF5 isoforms,"KIF5A, KIF5B, KIF5C",co-precipitated
same,co-precipitation with stalk region of KIF5C,KIF5C stalk (561–774),co-precipitated
same,KLC2 relative to KLC1 co-immunoprecipitated with DIC1a,KLC2,5 fold
